Measured values reported in the supplement of paper PMC9170038.

How the values were obtained:
[1] = tested on: MS2 coat protein; experiment: apparent KD of MS2 coat protein; designed switch direction (-1 OFF switch, 1 ON switch): 1; higher = weaker reporter binding
How it was run: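 On Illumina chips, designed RNA switches with common flanks were made by stalled E. coli RNA polymerase. Titrations with SNAP-549-labelled MS2 coat protein, doubling from 0.7 or 1.5 nM to 3 µM, were done with no input, with 200 uM small-molecule ligand, or with an oligonucleotide input. Apparent KD is the median per design over clusters, from curve fits of normalised cluster fluorescence.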

[2] = tested on: MS2 coat protein; experiment: apparent KD of MS2 coat protein; higher = weaker reporter binding; conditions: Eterna round: R107
How it was run: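 Apparent KD was obtained for each design as the median of normalised binding-curve fits over its clusters. RNA switches transcribed on-chip from Illumina sequencing clusters were titrated with SNAP-549-labelled MS2 coat protein (twofold steps, 0.7 or 1.5 nM to 3 µM) in 100 mM Tris-HCl pH 7.5, 80 mM KCl, 4 mM MgCl2, without or with constant ligand.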

[3] = input ligand: microRNA oligo, concentration not stated
[4] = input ligand: theophylline 20 uM
[5] = input ligand: theophylline 2 mM
[6] = input ligand: tryptophan 2.4 mM

Sequence	apparent KD of MS2 coat protein [1, 3] [µM]	apparent KD of MS2 coat protein ([1]; input ligand: FMN 200 uM) [µM]	apparent KD of MS2 coat protein ([1]; input ligand: none) [µM]	apparent KD of MS2 coat protein ([2]; input ligand: arginine 13.2 mM) [µM]	apparent KD of MS2 coat protein ([2]; input ligand: none) [µM]	apparent KD of MS2 coat protein [2, 4] [µM]	apparent KD of MS2 coat protein [2, 5] [µM]	apparent KD of MS2 coat protein [2, 6] [µM]
AAAAAACAUGAGGAUCACCCAUGUAAAAAAAUGGGAGGAUAUACAAAAACGAAAGUCAAAGUAGAAGGCCUGAAAA [same state 5] (Eterna round: R96, puzzle: Same State 1)	0.0786							
AAAAUGCGGGAAGGAUAUGGGAAAGGAAGUGUACCAGAAGGUCUCGCGGCCAAGGACAUGAGGAUCACCCAUGUGAACGCCCGA [PowerStrip SSNG 1.9] (Eterna round: R96, puzzle: Same State NG 1)	0.041	0.0981	0.0591					
UGGUUUCGGUCAAUCACCGGUCCCUGGGAAGGAGCGGACUCAUGUCCAGGUAGGUCGCCCAGACAUGAGGAUCACCCAUGUGACA [Tiusdiin]				0.0325	0.174	0.409	0.142	0.0241
UGUAACAUGAGGAUCACCCAUGUGAGUGAUACCAGAUUAGUAGUAGUCCCUUGGCAGCACAUUGGGCGAGUGUAUAGUCUAUGCG [Same State - Theophylline A (Freestyle 11)]				0.0946		0.219		0.155
UGUAACAUGAGGAUCACCCAUGUGCACGAUACCAGCUUCGAAAGAGGCCCUUGGCAGCGUAUGCGUAAGCUGUAUAAUAUAUAUC [#28 SameState-TheophyllineA]				0.0111		0.0144		0.0106
UGUAUGGACUGAAGGAGCGGGUAAAUAACUUGAGGAUCACCCAGGUAAAAGGCGAAAGCCACCCAGGUAGGUCGCAGUCCAUACU				0.0236	0.0211	0.0321	0.0292	0.0255
UGUAUGGACUGAAGGAGCGGGUAAUAAACCUGAGGAUCACCCAGGUAAUAGGCGAAAGCCACCCAGGUAGGUCGCAGUCCAUACU				0.00998	0.0141	0.0161	0.0151	0.0132
UGUAUGGACUGAAGGAGCGGGUUGAUAUCAUGAGGAUCACCCAUGGAAAAGGCGAAAGCCGCCCAGGUAGGUCGCAGUCCAUACU				0.0251		0.038	0.0375	0.026
UGUAUGGACUGAAGGAGCGGUAGAUAACCUGAGGAUCACCCGGGUAAUAAAGGCGAAAGCCACCAGGUAGGUCGCAGUCCAUACU				0.0933	0.206	0.173	0.321	0.262
UGUAUGUGAUCUGAUACCAGCUUUGAUAACCUGAGGAUCACCCUGGUAAAGGCGAAAGCCAGCCCUUGGCAGCAGAUCGCAUACU				0.0698	0.0491	0.0396	0.0207	0.0496
UGUAUGUGAUCUGAUACCAGUCCAACUGGUAAAAGAUGAGGAUCACCCAUCUAAAAUUGGGACCCUUGGCAGCAGAUCGCAUACU				0.0917	0.264	0.122	0.0137	0.264
UGUAUGUGAUGGGAUACCAGACCAGCUGGUGAUACAUGAGGAUCACCCAUGUAAAUUUGGGUCCCUUGGCAGCCCAUCGCAUACU [SSTheo B #25]				0.0324	0.022	0.068	0.0637	0.0239
UGUAUGUGAUUUGAUACCAGACCAGCUGGUGGUACUUGAGGAACACCCAAGUAGGUUUGGGUCCCUUGGCAGCAAAUCGCAUACU [SS Theo B #24 Ms11]				0.111		0.16	0.0299	0.138
UGUAUGUGAUUUGAUACCAGACCAGCUGGUGGUGCAUGAGGAACACCCAUGCAGGUUUGGGUCCCUUGGCAGCAAAUCGCAUACU [SS Theo B #24 Ms19]				0.149		0.15	0.033	0.13
UGUAUGUGAUUUGAUACCAGACCAGCUGGUGGUGCAUGAGGAUCACCCAUGCAGGUUUGGGUCCCUUGGCAGCAAAUCGCAUACU [SS Theo B #24 Ms17]				0.0725	0.119	0.135	0.0216	0.129
UGUAUGUGAUUUGAUACCAGACCAGCUGGUGUUACAAGAGGAUCACCCUUGUAGGUUUGGGUCCCUUGGCAGCAAAUCGCAUACU [SS Theo B #24 Ms4]				0.0942	0.136	0.135	0.0175	0.19
UGUAUGUGAUUUGAUACCAGACCAGCUGGUGUUAUAUGAGGAUCACCCAUAUAGGUUUGGGUCCCUUGGCAGCAAAUCGCAUACU [SS Theo B #24 Ms14]				0.0407	0.0286	0.0388	0.0174	0.0325
UGUAUUACGAAAGUAGUACAUCGUGUUCGACGAGGACCGGUACGGCCGCCACUCGGACAUGAGGAUCACCCAUGUAGCGAAAGCU [Tryptophan A 25]				0.0938		0.354	0.491	
UGUGUCGUCUGAAGGAGCGGCUCUUGAUCCUCGUGAGACAUGAGGAUCACCCAUGUCUCGAGCCAGGUAGGUCGCAGGCGGCACA [#26 Exclusion - Arginine B]				0.00708	0.0162	0.0128	0.0136	0.0141
UUAAUCAAUAUAGAAAACUAUAUUGCAGAAGGAGCGUGAUAAAACACAGGUAGGUCGCUGAAGGGAACAUGAGGAUCACCCAUGU [AstrosSSArgA#5]				0.0248	0.0234	0.0325	0.0263	0.0262

Sequence	apparent KD of MS2 coat protein [1, 3] [µM]	apparent KD of MS2 coat protein ([1]; input ligand: FMN 200 uM) [µM]	apparent KD of MS2 coat protein ([1]; input ligand: none) [µM]	apparent KD of MS2 coat protein ([2]; input ligand: arginine 13.2 mM) [µM]	apparent KD of MS2 coat protein ([2]; input ligand: none) [µM]	apparent KD of MS2 coat protein [2, 4] [µM]	apparent KD of MS2 coat protein [2, 5] [µM]	apparent KD of MS2 coat protein [2, 6] [µM]
UUAAUCAGGUUAGAAAACUAAUUUGCAGAAGGAGCGUGAUAAAACACAGGUAGGUCGCUGAAGGGAACAUGAGGAUCACCCAUGU [AstrosSSArgA#10]				0.0229	0.0263	0.0327	0.0285	0.026
UUAAUGGAGCUUUAAUUUACGAUUUCUGAUACCAGUGUUUCAUUUCACCCUUGGCAGCAGUGACAUGAGGAUCACCCAUGUAAUA [JR_Nu_SSTheophyA_Sub022]				0.0237		0.0355		0.0264
UUAGAUAUGACAGAUACCAGCGUGUUGUAGAACAUGAGGAUCACCCAUGUAGUGAUCGAGCGCCCUUGGCAGCUGGUGUGUUUGG [7.S]				0.163		0.303		0.319
UUAUAUAUGCGAAGGAGCGGGAAAUAUAUAUAUAUAAUCCUAACAUGAGGAUCACCCAUGUCCCAGGUAGGUCGCGCAUAUAUAG [12.C]				0.038	0.079	0.117	0.0766	0.0534
UUAUAUAUGCGAAGGAGCGGGAAAUAUAUAUAUAUAAUCCUAACAUGAGGAUCACCCAUGUCCCAGGUAGGUCGCGCAUAUAUGG [12.E]				0.0742	0.0844	0.0768	0.0951	0.0757
UUAUGCAGGUCGGCCGCCACUACACACAUGAGGAUCACCCAUGUAGUUACUGGGUGAAGUGGCAGUAGGACCGGGACCCGCACAC [Brourdmod22]				0.226	0.485	0.561	0.715	0.258
UUAUUUAACGGAAGGAGCGCGGAAAUAAAAGUGGGUAAACAUGAGGAUCACCCAUGUAAACCGCAGGUAGGUCGCCGAUAUUUAU [AstrosEXyARgB#2]				0.037	0.0769	0.0939	0.0954	0.0594
UUAUUUAUAUUAGAUACCAGUUUAAUGGCCGCAAAUCCUGACAUGAGGAUCACCCAUGUAAGCCCUUGGCAGCUGGUAUGGGUUU [XTheo B #26]				0.0252		0.0252		0.0205
UUCAGCUAGUCGGCCGCCACUACCUGAGGAUCACCCUGGUAAUCCUAACACUGCUUCGGCAGUGGUAGGACCGGGACUAGCUGAG				0.0277	0.0282	0.0397	0.0326	0.225
UUCAGCUAGUCGGCCGCCACUAUCUGAGGAUCACCCAGGUAAUCCUAACACUGCUUCGGCAGUGGUAGGACCGGGACUAGCUGAG				0.00818	0.0145	0.0263	0.02	0.0106
UUCGUUGGCGAUCUGGGUUUACCAGAUCGGCGAGGACCGGUACGGCCGCCACUCGUGUUUUCUUUACAUGAGGAUCACCCAUGUU [SSTA #3]				0.0169		0.0253	0.0255	
UUGGGUUUGCGAAGGAGCGGGAAAUAUAUAUAUAUAAUCCUAACAUGAGGAUCACCCAUGUCCCAGGUAGGUCGCGCAGGUUUGG [12.L]				0.0581	0.0542	0.0818	0.0732	0.0587
UUGUUGUUUGGAAGGAGCGUGGAUGAGUGAGAACAUGAGGAUCACCCAUGUUGUAUGAUACCGCAGGUAGGUCGCCGGGUGGUGG [11.aB]				0.0169	0.0181	0.0396	0.0215	0.0175
UUGUUGUUUGGAAGGAGCGUGUAAGAUUAAGAACAUGAGGAUCACCCAUGUUUUAAGGGAACACAGGUAGGUCGCCGGGUGGUGG [11.R]				0.0155	0.0139	0.019	0.0148	0.0156
UUUAAAAUCAGAAGGAGCGUGAUAAACAUGAGGAUCACCCAUGUCGAAAAUUUAAUAUAAUCACAGGUAGGUCGCUGUAAUAUUU [Same State - Ariginine B]				0.0142	0.014	0.0186	0.0165	0.0142
UUUGAUAGGACAGAUACCAGCGUGUUAUAGAACAUGAGGAUCACCCAUGUAGUGAUCAAGCGCCCUUGGCAGCUGGUUUGUUAGG [7.K]				0.119		0.35		0.196
UUUGCACAUGAGGAUCACCCAUGUACAGAUACCAGCCUCAUCUACGGCCCUUGGCAGCUGAGACAAUGGUGACAUGAUGGGCUUU [Istein]				0.016		0.0204		0.0123
UUUUACAUGAGGAUCACCCAUGUGCGGCGCCGAGGACCGGUACGGCCGCCACUCGCAUGGGCAUGCCGCGAUAUCAUUCCUGAAC [theeternabot_sameState_MS2_Trp_A_43]				0.0536		0.249	0.306	
UUUUUCAUAGGUUAUAGUUUAGAAACUGAAGGAGCGUGGUAAUACACAGGUAGGUCGCAGAUUUUACAUGAGGAUCACCCAUGUU [JR_ExcArginiA_Sub014]				0.0221	0.0232	0.0273	0.027	0.0256
UUUUUUAACUGAAGGAGCGUCACAUGAGGAUCACCCAUGUAUUAGAUGAGAAUGAUCUUGUGGCAGGUAGGUCGCAGAGGAAGGG [#30 Exclusion - Arginine B]				0.521	0.327	0.167	0.271	0.37
